Data reported in US9567369B2, “Method of treating metastatic cancer” (A.T. Still University, priority 2012, dated 2017).
Ends that are not written are not given here.

Legend:
[1] = test system: metastatic human melanoma 1205 Lu cells; assay: MTT growth assay of human 1205 Lu melanoma cells with peptide; format: cell-based; conditions: peptide 10 uM, 1 time addition or day 1-3 addition; identical conditions as for B16
Protocol: B16F10 melanoma cells were obtained from the ATCC. Human 1205 Lu metastatic melanoma cell line was received from Robert Baer, PhD, a collaborator with our laboratory here at ATSU. Growth was in RPMI 1640 media supplemented with FBS (10%) and penicillin, streptomycin, amphotericin antibiotics (1%) (Sigma). Cells were maintained in a humidified incubator at 37° C. with 5% CO2.
The growth of B16F10 melanoma cells by the MTT method was performed with the addition of 10 uM peptide to the melanoma cells in standard 96-well culture plates. Cells were cultured in media for 4 days after seeding at about 1000 cells per well. After growth the culture media was replaced with media containing 0.5 mg/ml MTT solution and incubated for 4 hours at 37° C. The MTT solution was then removed and the residual dye was solubilized in 100 ul isopropanol for 15 minutes before reading the O.D. at 570 nm.

protein kinase C (PKC) = assay: Inhibition of protein kinase C activity
papain = target: T1, papain (Carica papaya, UniProt P00784); conditions: at 160 uM; cited from earlier work
T1 sequence (P00784 134-345): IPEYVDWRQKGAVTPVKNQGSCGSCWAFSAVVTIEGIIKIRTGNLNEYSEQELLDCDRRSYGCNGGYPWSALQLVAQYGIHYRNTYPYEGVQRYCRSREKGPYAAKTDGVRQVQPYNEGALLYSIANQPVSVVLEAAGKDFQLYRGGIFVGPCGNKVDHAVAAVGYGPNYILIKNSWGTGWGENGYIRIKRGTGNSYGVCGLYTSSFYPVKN

B16 melanoma cells = assay: Boyden chamber-type migration assay, Cystatin C overexpressing clone cc6 versus control plasmid clone pc2; format: cell-based, murine; conditions: B16 melanoma cells overexpressing Cystatin C (clone cc6) compared to control plasmid transfected (pc2); bFGF chemotactic factor
Text: (§1) The Cystatin C cDNA was amplified from B16F10 melanoma cells by PCR amplification of reverse transcribed total RNA isolated from B16 F10 melanoma cells in culture. The primers used for the amplification were derived from 5′ and 3′ sequences for murine Cystatin C from Solem et al. (18). The PCR product corresponding to the expected size was agarose gel purified and ligated into pcDNA3 expression plasmid for further analysis. The plasmid was sent to for sequence analysis at the University of Chicago and the sequence analysis produced a cDNA sequence which exactly matched murine Cystatin C cDNA sequence (19). Transfection of the cystatin plasmid or pcDNA3 plasmid was carried out with Lipofectamine™ reagent (Invitrogen) by the manufacturer's instructions. Isolated cell colonies, which had grown following Geneticin® (1 mg/ml) selection were trypsized in glass cloning rings and transferred to multi-well tissue culture dishes for expansion in culture.
Cells (2×104) are placed into the top well of the Boyden chamber in cell culture media while media plus bFGF chemotactic factor (25 ng/ml) is placed into the lower well of the chamber. Quantitation is through direct microscopic counting of 10-20 fields of crystal violet stained cells per filter.

[2] = test system: MARCKS phosphorylation in B16F10 melanoma cells; assay: MARCKS phosphorylation by western blot with phospho-antibody probing; format: cell-based; conditions: murine Cystatin C overexpressing clone cc6 B16F10 melanoma cells vs control
Text: as §1
For analysis of B16 melanoma proteins, melanoma cell cultures were lysed with lysis buffer and extracts were centrifuged at 10K rpm for 5 minutes. Protein was measured by Lowry assay and 40 ug of protein was loaded per lane on 10% SDS-PAGE gels for analysis. After electrophoresis, the proteins were transferred to PVDF membranes which were first blocked with 2% BSA in TBST buffer. […]

Molecule: RQIKIWFPNRRMKWKKAYRKQLVAGVNYFFDVH [penetratin linked to active peptide]
- growth of human 1205 Lu melanoma cell line [1]: significantly inhibits

Molecule: YRKQLVAGVNYFFDVH (listed as Mus musculus) [therapeutic peptide, Therapeutic peptide derived from mouse Cystatin C with the first A substituted by Y]
- inhibition of protein kinase C (PKC) activity (protein kinase C (PKC)): inhibits
- inhibition of papain (papain): 20%

B1: Cystatin C: natural cysteine protease inhibitor; murine Cystatin C cDNA overexpressed from pcDNA3 plasmid in B16F10 melanoma cells (clone cc6) (protein, UniProt P21460 21-140, looked up)
Cystatin-C: ATPKQGPRMLGAPEEADANEEGVRRALDFAVSEYNKGSNDAYHSRAIQVVRARKQLVAGVNYFLDVEMGRTTCTKSQTNLTDCPFHDQPHLMRKALCSFQIYSVPWKGTHSLTKFSCKNA
- inhibition of migration (B16 melanoma cells): ~80%
- average level of MARCKS phosphorylation, fold less [2]: 3-5 fold
